Key:
[1] = Safety test on anti-GPC1 antibody 01a033 using mice; type: in vivo, mouse; conditions: 1 mg/body ip, C57BL/6J mice, day 7
Description: The following items were evaluated on day 7.
Blood collection endpoints: WBC, RBC, Hb, Plt, T-Bil, ALT, ALP, Amy, BUN, Cr, Ca, P, TP, Alb, Na, K, Glob, and Glu, automatic blood cell counter: VetScan HMII, animal biochemical blood analyzer: VetScan VS2.

TE8 cells = assay: Internalization assay on GPC1 ADC (01a033), TE8 cells; type: cell-based; conditions: 0-24 h
Description: Detection was performed on cells treated with GPC1 ADC (01a033) MMAF with anti-GPC1 mAb (biotin-labeled 02b006) and PE-labeled streptavidin.
TE8, HeLa, ME180, BxPC3, and T3M4 cell strains were detached and collected from a 10 cm plate using 0.02% EDTA. Cells were suspended in RPMI1640+10% FBS+100 U/ml penicillin+100 μg/ml streptomycin, and two 1.5 ml tubes were created at 1.0×10^6 cells/0.9 ml. To lower the internalization activity, the tubes were left standing on ice for 1 hour. 1 mg/ml of GPC1 ADC (01a033) MMAF was diluted to 24 μg/mL (160 nM) with ice-cooled RPMI1640+10% FBS+100 U/ml penicillin+100 μg/ml streptomycin. 100 μl of the ADC was added and suspended in the cell suspension and incubated on ice for 30 minutes to stain the antigens on the cell surface. After 30 minutes, the cell suspension was dispensed into 7 tubes each at 100 μl each. The cell suspension was separated into 4° C. incubation group and 37° C. incubation group in 14 tubes. The incubation times were 0.0 h, 1 h, 2 h, 3 h, 4 h, 6 h, 12 h, and 24 h. After reaching the incubation time, the cells were centrifuged at 1500 rpm at 4° C. for 5 minutes to remove the supernatant. The cells were washed with 100 μl of ice cooled PBS+0.2% BSA and subjected to centrifugation to wash the cells. Washing operation was performed three times in total. […]

[2] = test system: GPC1 positive esophageal cancer cell strains (TE4, TE5, TE6, TE8, TE9, TE10, TE11, TE14, TE15); assay: In vitro ADC assay, GPC1 positive esophageal cancer cell strains; type: cell-based; conditions: 144 hours of culture
Description: Preparation of a conjugate of mouse anti-Glypican-1 mAb (01a033), mouse IgG2a (biolegend #400224) as a control, and mc-vc-PAB-MMAF was commissioned to MORADEC. An anticancer agent was conjugated to a cysteine residue via a cleavable linker. The DAR (drug-antibody ratio) was as follows. GPC1-CL-MMAF DAR=3.8, mouse IgG2a-CL-MMAF DAR=4.1.
(1) The cells were seeded on Thermo Fisher Scientific's 96-well white plate (model no.: 136101) (90 μl cell suspension). RPMI1640+10% FBS+100 U/ml penicillin+100 μg/ml streptomycin was used as the medium. The cells were seeded in 60 wells, and 100 μL of medium was added to 36 wells, and cultured in a 5% CO2 incubator at 37° C. (2) The next day, 10 μL of ADC was added to the cells (total amount: 100 μL). (3) After 144 hours of culture, a CellTiter-Glo™ Luminescence Cell Viability Assay reagent (Promega) was added and mixed at 100 μL/well. (4) Measurements were taken with a plate reader. (5) Analysis was conducted with GraphPad Prism 6.
The IC50 values were calculated from the following equation (Hossain M M, Hosono-Fukao T, Tang R, Sugaya N, van Kuppevelt T H, Jenniskens G J, Kimata K, Rosen S D, Uchimura K (2010) Direct detection of HSulf-1 and HSulf-2 activities on extracellular heparan sulphate and their inhibition by PI-88. Glycobiology 20(2): 175-186.)
IC50=10^(Log [A][B]×(50−C)/(D−C)+Log [B]) […]

[3] = Single dose safety test on GPC1 ADC in C57BL/6J mice
Description: A single dose (1 ml) of control PBS, control ADC (50 mg/kg), anti-GPC1 ADC (3 mg/kg), anti-GPC1 ADC (15 mg/kg), and anti-GPC1 ADC (50 mg/kg) was intraperitoneally administered on day 1 to a group of 4 male and 4 female C57BL/6J mice (8W). The mice were dissected after 7 days from administration.
*Blood collection (Blood cell count, biochemical test)

[4] = single ip dose, high dose administration group, not GPC1-ADC specific

Row | Molecule | toxicity (blood cell count, biochemical blood analysis) [1] | residual amount of Glypican-1 on the cell surface (TE8 cells; TE8, incubation at 4° C.) | Glypican-1 remaining on the cell surface (TE8 cells; TE8, incubation at 37° C.) | effect of suppressing cell growth [2] | toxicity from the results of the hematological test ([3]; single ip dose) | anemia (hemoglobin) ([3]; single ip dose 50 mg/kg) | amylase ([3]; single ip dose 3, 15, 50 mg/kg) | platelet count ([3]; single ip dose 3, 15, 50 mg/kg) | change in the body weight ([3]; single ip dose, groups other than 50 mg/kg (3, 15 mg/kg), 7 days) | liver function (ALT) [3, 4] | white blood cells [3, 4]
1 | clone 01a033 (antibody) heavy: QVQLKQSGPELVKPGASVKISCKASGYSFTGYYMHWVKQSPEKSLEWIGEINPSTGDTTYNQKFKAKATLTVDKSSSTAYMQLKSLTSEDSAVYYCAREKRDDGVFAYWGQGTLVTVSSAKTTAPSVYPLAPVCGDTTGSSVTLGCLVKGYFPEPVTLTWNSGSLSSGVHTFPAVLQSDLYTLSSSVTVTSSTWPSQSITCNVAHPASSTKVDKKIEPRGPTIKPCPPCKCPAPNLLGGPSVFIFPPKIKDVLMISLSPIVTCVVVDVSEDDPDVQISWFVNNVEVHTAQTQTHREDYNSTLRVVSALPIQHQDWMSGKEFKCKVNNKDLPAPIERTISKPKGSVRAPQVYVLPPPEEEMTKKQVTLTCMVTDFMPEDIYVEWTNNGKTELNYKNTEPVLDSDGSYFMYSKLRVEKKNWVERNSYSCSVVHEGLHNHHTTKSFSRTPGK light: DIVMSQSPKSMSMSVGERVALSCKASENVGTYVSWYQQKPEQSPKLLIYGASNRYTGVPDRFTGSGSATDFTLTISSVQAEDLADYYCGQSYSYPLTFGAGTKLELKRADAAPTVSIFPPSSEQLTSGGASVVCFLNNFYPKDINVKWKIDGSERQNGVLNSWTDQDSKDSTYSMSSTLTLTKDEYERHNSYTCEATHKTSTSPIVKSFNRNEC | Toxicity was not found |  |  |  |  |  |  |  |  |  | 
2 | GPC1 ADC (conjugate) heavy: QVQLKQSGPELVKPGASVKISCKASGYSFTGYYMHWVKQSPEKSLEWIGEINPSTGDTTYNQKFKAKATLTVDKSSSTAYMQLKSLTSEDSAVYYCAREKRDDGVFAYWGQGTLVTVSSAKTTAPSVYPLAPVCGDTTGSSVTLGCLVKGYFPEPVTLTWNSGSLSSGVHTFPAVLQSDLYTLSSSVTVTSSTWPSQSITCNVAHPASSTKVDKKIEPRGPTIKPCPPCKCPAPNLLGGPSVFIFPPKIKDVLMISLSPIVTCVVVDVSEDDPDVQISWFVNNVEVHTAQTQTHREDYNSTLRVVSALPIQHQDWMSGKEFKCKVNNKDLPAPIERTISKPKGSVRAPQVYVLPPPEEEMTKKQVTLTCMVTDFMPEDIYVEWTNNGKTELNYKNTEPVLDSDGSYFMYSKLRVEKKNWVERNSYSCSVVHEGLHNHHTTKSFSRTPGK light: DIVMSQSPKSMSMSVGERVALSCKASENVGTYVSWYQQKPEQSPKLLIYGASNRYTGVPDRFTGSGSATDFTLTISSVQAEDLADYYCGQSYSYPLTFGAGTKLELKRADAAPTVSIFPPSSEQLTSGGASVVCFLNNFYPKDINVKWKIDGSERQNGVLNSWTDQDSKDSTYSMSSTLTLTKDEYERHNSYTCEATHKTSTSPIVKSFNRNEC |  | hardly changed | decreases with the passage of incubation time | exhibits an effect of suppressing cell growth | Significant toxicity due to ADC administration was not observed | Mild anemia | Specific abnormality was not observed | Abnormal platelet count specific to each group was not observed | Significant change in the body weight was not observed | An abnormality in the liver function was found | increase in the while blood cells was observed

From patent US20200308299A1, “ANTI-GPC-1 ANTIBODY” (National University Corporation Kochi University, priority 2017, published 2020)
